Experimental findings from patent US20030096225A1 are described below.

This test concerns the target purified recombinant Ep-CAM produced in insect cells (UniProt P16422). The test is described as follows: SPR (BIAcore), Ep-CAM coupled to CM5 chip, control antibody. (Surface plasmon resonance follows binding to a sensor surface in real time, without labels.)

purified recombinant Ep-CAM produced in insect cells, sequence (P16422 24-265 limits assumed): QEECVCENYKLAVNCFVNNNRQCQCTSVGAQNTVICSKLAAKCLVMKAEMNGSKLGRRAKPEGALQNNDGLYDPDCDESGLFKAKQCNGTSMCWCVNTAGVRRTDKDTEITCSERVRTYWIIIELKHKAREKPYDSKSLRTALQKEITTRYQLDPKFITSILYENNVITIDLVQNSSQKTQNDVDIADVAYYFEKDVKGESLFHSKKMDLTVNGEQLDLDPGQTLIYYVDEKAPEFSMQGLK

For murine anti-Ep-CAM antibody 323/A3, the Kd was 500 pM.

By Kd is commonly meant the free concentration of one partner at which half of the binding sites on the other are occupied at equilibrium, for simple one-to-one binding.
